Results from patent US20260001928A1 (CORTERIA PHARMACEUTICALS, priority 2022, published 2026).
One block for each binder: values may come before it. *1 amine or outer side, *2 acyl side, *3 side chain or, on linkers, in order; H or OH if unused. Where no end group is shown, it is not given here. Side-chain parts run from the residue outwards. [ ]: non-standard residue; d: D form. The star is where a group is joined. C18 diacid = O=C(O)CCCCCCCCCCCCCCCCC(=O)*; C16 diacid = O=C(O)CCCCCCCCCCCCCCC(=O)*; γGlu = O=C(O)[C@H](CCC(=O)[*:2])N[*:1]; NMeI = CC[C@H](C)[C@H](NC)C(=O)O; αMeL = CC(C)C[C@](C)(N)C(=O)O; AEEA = NCCOCCOCC(=O)O; Aib = CC(C)(N)C(=O)O

How the values were obtained:
CRF1R receptor = molecular target: T1, CRF1R receptor (UniProt P34998 24-415, limits assumed); experiment: cell-based or functional assay
T1 sequence (looked up): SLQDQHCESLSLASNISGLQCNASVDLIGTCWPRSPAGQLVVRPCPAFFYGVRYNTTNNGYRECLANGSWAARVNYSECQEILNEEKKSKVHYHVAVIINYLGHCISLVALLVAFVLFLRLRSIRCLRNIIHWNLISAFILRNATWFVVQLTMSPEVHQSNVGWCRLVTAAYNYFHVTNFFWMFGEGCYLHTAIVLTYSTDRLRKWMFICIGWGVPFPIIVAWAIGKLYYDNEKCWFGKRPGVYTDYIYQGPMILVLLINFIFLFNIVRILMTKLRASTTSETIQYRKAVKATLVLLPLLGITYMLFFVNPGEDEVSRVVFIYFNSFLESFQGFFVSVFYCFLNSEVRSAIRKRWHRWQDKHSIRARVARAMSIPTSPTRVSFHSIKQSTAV

[1] = molecular target: human corticotropin-releasing factor 2a (CRF2a receptor) (human), Q13324; experiment: cell-based or functional assay
Chain of human corticotropin-releasing factor 2a (CRF2a receptor) (human), Q13324 (Q13324 20-411): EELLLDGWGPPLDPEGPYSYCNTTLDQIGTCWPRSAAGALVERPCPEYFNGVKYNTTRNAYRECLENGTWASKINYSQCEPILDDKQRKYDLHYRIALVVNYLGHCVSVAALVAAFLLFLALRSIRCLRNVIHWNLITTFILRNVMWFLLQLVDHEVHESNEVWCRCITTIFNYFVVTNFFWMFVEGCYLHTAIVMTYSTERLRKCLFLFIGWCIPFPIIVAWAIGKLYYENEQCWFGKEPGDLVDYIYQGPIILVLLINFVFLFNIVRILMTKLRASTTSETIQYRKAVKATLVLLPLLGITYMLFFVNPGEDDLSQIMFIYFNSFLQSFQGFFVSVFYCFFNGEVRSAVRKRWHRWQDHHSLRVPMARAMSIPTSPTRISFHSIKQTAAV

Emax (% I) (CRF1R receptor): 1%
EC50 [nM] (cAMP) [1]: 0.3 nM
B1: SEQ ID NO 43 (peptide)
peptide: Ac-IVLSLDVPIK[αMeL]K([γGlu-C16 diacid])KILLEQEKQKKQREQAETN[Aib]QILAQV-NH2
SMILES: CC[C@H](C)[C@H](NC(C)=O)C(=O)N[C@H](C(=O)N[C@@H](CC(C)C)C(=O)N[C@@H](CO)C(=O)N[C@@H](CC(C)C)C(=O)N[C@@H](CC(=O)O)C(=O)N[C@H](C(=O)N1CCC[C@H]1C(=O)N[C@H](C(=O)N[C@@H](CCCCN)C(=O)N[C@@](C)(CC(C)C)C(=O)N[C@@H](CCCCNC(=O)CC[C@H](NC(=O)CCCCCCCCCCCCCCC(=O)O)C(=O)O)C(=O)N[C@@H](CCCCN)C(=O)N[C@H](C(=O)N[C@@H](CC(C)C)C(=O)N[C@@H](CC(C)C)C(=O)N[C@@H](CCC(=O)O)C(=O)N[C@@H](CCC(N)=O)C(=O)N[C@@H](CCC(=O)O)C(=O)N[C@@H](CCCCN)C(=O)N[C@@H](CCC(N)=O)C(=O)N[C@@H](CCCCN)C(=O)N[C@@H](CCCCN)C(=O)N[C@@H](CCC(N)=O)C(=O)N[C@@H](CCCNC(=N)N)C(=O)N[C@@H](CCC(=O)O)C(=O)N[C@@H](CCC(N)=O)C(=O)N[C@@H](C)C(=O)N[C@@H](CCC(=O)O)C(=O)N[C@H](C(=O)N[C@@H](CC(N)=O)C(=O)NC(C)(C)C(=O)N[C@@H](CCC(N)=O)C(=O)N[C@H](C(=O)N[C@@H](CC(C)C)C(=O)N[C@@H](C)C(=O)N[C@@H](CCC(N)=O)C(=O)N[C@H](C(N)=O)C(C)C)[C@@H](C)CC)[C@@H](C)O)[C@@H](C)CC)[C@@H](C)CC)C(C)C)C(C)C

Emax (% I) (CRF1R receptor): 0%
EC50 [nM] (cAMP) [1]: 0.25 nM
B2: SEQ ID NO 40 (peptide)
peptide: Ac-IVLSLD[dV]PIKLK([γGlu-C16 diacid])KILLEQEKQKKQREQAETN[Aib]QILAQV-NH2
SMILES: CC[C@H](C)[C@H](NC(C)=O)C(=O)N[C@H](C(=O)N[C@@H](CC(C)C)C(=O)N[C@@H](CO)C(=O)N[C@@H](CC(C)C)C(=O)N[C@@H](CC(=O)O)C(=O)N[C@@H](C(=O)N1CCC[C@H]1C(=O)N[C@H](C(=O)N[C@@H](CCCCN)C(=O)N[C@@H](CC(C)C)C(=O)N[C@@H](CCCCNC(=O)CC[C@H](NC(=O)CCCCCCCCCCCCCCC(=O)O)C(=O)O)C(=O)N[C@@H](CCCCN)C(=O)N[C@H](C(=O)N[C@@H](CC(C)C)C(=O)N[C@@H](CC(C)C)C(=O)N[C@@H](CCC(=O)O)C(=O)N[C@@H](CCC(N)=O)C(=O)N[C@@H](CCC(=O)O)C(=O)N[C@@H](CCCCN)C(=O)N[C@@H](CCC(N)=O)C(=O)N[C@@H](CCCCN)C(=O)N[C@@H](CCCCN)C(=O)N[C@@H](CCC(N)=O)C(=O)N[C@@H](CCCNC(=N)N)C(=O)N[C@@H](CCC(=O)O)C(=O)N[C@@H](CCC(N)=O)C(=O)N[C@@H](C)C(=O)N[C@@H](CCC(=O)O)C(=O)N[C@H](C(=O)N[C@@H](CC(N)=O)C(=O)NC(C)(C)C(=O)N[C@@H](CCC(N)=O)C(=O)N[C@H](C(=O)N[C@@H](CC(C)C)C(=O)N[C@@H](C)C(=O)N[C@@H](CCC(N)=O)C(=O)N[C@H](C(N)=O)C(C)C)[C@@H](C)CC)[C@@H](C)O)[C@@H](C)CC)[C@@H](C)CC)C(C)C)C(C)C

EC50 (CRF1R receptor): 100 nM
Emax (% I) (CRF1R receptor): 27%
EC50 [nM] (cAMP) [1]: 0.1 nM
B3: SEQ ID NO 146 (peptide)
peptide: IVLSLD[dV]PIKLK([AEEA-AEEA-γGlu-γGlu-C16 diacid])QILLKQERQKKQREQAEKNKQILEQV-NH2

Emax (% I) (CRF1R receptor): -5%
EC50 [nM] (cAMP) [1]: 17.6 nM
B4: SEQ ID NO 102 (peptide)
peptide: Ac-IVLSLDVPIKLK([AEEA-AEEA-γGlu-C18 diacid])KILLEQEKQKKQREQAETNVQILAQV-NH2
SMILES: CC[C@H](C)[C@H](NC(C)=O)C(=O)N[C@H](C(=O)N[C@@H](CC(C)C)C(=O)N[C@@H](CO)C(=O)N[C@@H](CC(C)C)C(=O)N[C@@H](CC(=O)O)C(=O)N[C@H](C(=O)N1CCC[C@H]1C(=O)N[C@H](C(=O)N[C@@H](CCCCN)C(=O)N[C@@H](CC(C)C)C(=O)N[C@@H](CCCCNC(=O)COCCOCCNC(=O)COCCOCCNC(=O)CC[C@H](NC(=O)CCCCCCCCCCCCCCCCC(=O)O)C(=O)O)C(=O)N[C@@H](CCCCN)C(=O)N[C@H](C(=O)N[C@@H](CC(C)C)C(=O)N[C@@H](CC(C)C)C(=O)N[C@@H](CCC(=O)O)C(=O)N[C@@H](CCC(N)=O)C(=O)N[C@@H](CCC(=O)O)C(=O)N[C@@H](CCCCN)C(=O)N[C@@H](CCC(N)=O)C(=O)N[C@@H](CCCCN)C(=O)N[C@@H](CCCCN)C(=O)N[C@@H](CCC(N)=O)C(=O)N[C@@H](CCCNC(=N)N)C(=O)N[C@@H](CCC(=O)O)C(=O)N[C@@H](CCC(N)=O)C(=O)N[C@@H](C)C(=O)N[C@@H](CCC(=O)O)C(=O)N[C@H](C(=O)N[C@@H](CC(N)=O)C(=O)N[C@H](C(=O)N[C@@H](CCC(N)=O)C(=O)N[C@H](C(=O)N[C@@H](CC(C)C)C(=O)N[C@@H](C)C(=O)N[C@@H](CCC(N)=O)C(=O)N[C@H](C(N)=O)C(C)C)[C@@H](C)CC)C(C)C)[C@@H](C)O)[C@@H](C)CC)[C@@H](C)CC)C(C)C)C(C)C

Emax (% I) (CRF1R receptor): 6%
EC50 [nM] (cAMP) [1]: 0.49 nM
B5: SEQ ID NO 38 (peptide)
peptide: IVLSLDVPIK[αMeL]K([γGlu-C16 diacid])KILLEQEKQKKQREQAETN[Aib]QILAQV-NH2
modifications: N-terminus assumed
SMILES: CC[C@H](C)[C@H](N)C(=O)N[C@H](C(=O)N[C@@H](CC(C)C)C(=O)N[C@@H](CO)C(=O)N[C@@H](CC(C)C)C(=O)N[C@@H](CC(=O)O)C(=O)N[C@H](C(=O)N1CCC[C@H]1C(=O)N[C@H](C(=O)N[C@@H](CCCCN)C(=O)N[C@@](C)(CC(C)C)C(=O)N[C@@H](CCCCNC(=O)CC[C@H](NC(=O)CCCCCCCCCCCCCCC(=O)O)C(=O)O)C(=O)N[C@@H](CCCCN)C(=O)N[C@H](C(=O)N[C@@H](CC(C)C)C(=O)N[C@@H](CC(C)C)C(=O)N[C@@H](CCC(=O)O)C(=O)N[C@@H](CCC(N)=O)C(=O)N[C@@H](CCC(=O)O)C(=O)N[C@@H](CCCCN)C(=O)N[C@@H](CCC(N)=O)C(=O)N[C@@H](CCCCN)C(=O)N[C@@H](CCCCN)C(=O)N[C@@H](CCC(N)=O)C(=O)N[C@@H](CCCNC(=N)N)C(=O)N[C@@H](CCC(=O)O)C(=O)N[C@@H](CCC(N)=O)C(=O)N[C@@H](C)C(=O)N[C@@H](CCC(=O)O)C(=O)N[C@H](C(=O)N[C@@H](CC(N)=O)C(=O)NC(C)(C)C(=O)N[C@@H](CCC(N)=O)C(=O)N[C@H](C(=O)N[C@@H](CC(C)C)C(=O)N[C@@H](C)C(=O)N[C@@H](CCC(N)=O)C(=O)N[C@H](C(N)=O)C(C)C)[C@@H](C)CC)[C@@H](C)O)[C@@H](C)CC)[C@@H](C)CC)C(C)C)C(C)C

Emax (% I) (CRF1R receptor): -3%
EC50 [nM] (cAMP) [1]: 0.92 nM
B6: SEQ ID NO 49 (peptide)
peptide: Ac-IVLSLDVPIK[αMeL]K([γGlu-C16 diacid])KILLEQEKQKKQREQAETNVQILAQV-NH2

Emax (% I) (CRF1R receptor): 4%
EC50 [nM] (cAMP) [1]: 0.19 nM
B7: SEQ ID NO 64 (peptide)
peptide: [NMeI]VLSLD[dV]PIKLK([γGlu-C16 diacid])KILLEQEKQKKQREQAETN[Aib]QILAQV-NH2
modifications: N-terminus assumed
SMILES: CC[C@H](C)[C@H](NC)C(=O)N[C@H](C(=O)N[C@@H](CC(C)C)C(=O)N[C@@H](CO)C(=O)N[C@@H](CC(C)C)C(=O)N[C@@H](CC(=O)O)C(=O)N[C@@H](C(=O)N1CCC[C@H]1C(=O)N[C@H](C(=O)N[C@@H](CCCCN)C(=O)N[C@@H](CC(C)C)C(=O)N[C@@H](CCCCNC(=O)CC[C@H](NC(=O)CCCCCCCCCCCCCCC(=O)O)C(=O)O)C(=O)N[C@@H](CCCCN)C(=O)N[C@H](C(=O)N[C@@H](CC(C)C)C(=O)N[C@@H](CC(C)C)C(=O)N[C@@H](CCC(=O)O)C(=O)N[C@@H](CCC(N)=O)C(=O)N[C@@H](CCC(=O)O)C(=O)N[C@@H](CCCCN)C(=O)N[C@@H](CCC(N)=O)C(=O)N[C@@H](CCCCN)C(=O)N[C@@H](CCCCN)C(=O)N[C@@H](CCC(N)=O)C(=O)N[C@@H](CCCNC(=N)N)C(=O)N[C@@H](CCC(=O)O)C(=O)N[C@@H](CCC(N)=O)C(=O)N[C@@H](C)C(=O)N[C@@H](CCC(=O)O)C(=O)N[C@H](C(=O)N[C@@H](CC(N)=O)C(=O)NC(C)(C)C(=O)N[C@@H](CCC(N)=O)C(=O)N[C@H](C(=O)N[C@@H](CC(C)C)C(=O)N[C@@H](C)C(=O)N[C@@H](CCC(N)=O)C(=O)N[C@H](C(N)=O)C(C)C)[C@@H](C)CC)[C@@H](C)O)[C@@H](C)CC)[C@@H](C)CC)C(C)C)C(C)C
